B1: Cell division protein ZapB (Escherichia coli (strain K12)), P0AF36 (parent)
chain: MTMSLEVFEKLEAKVQQAIDTITLLQMEIEELKEKNNSLSQEVQNAQHQREELERENNHLKEQQNGWQERLQALLGRMEEV
partner: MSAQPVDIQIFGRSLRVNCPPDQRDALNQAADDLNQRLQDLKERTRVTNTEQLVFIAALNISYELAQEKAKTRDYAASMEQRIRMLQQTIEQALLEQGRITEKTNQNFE

This assay covers variants of B1. As to conditions: with zapa_ecoli zapA.
On to MTMAAEVFEKLEAKVQQAIDTITLLQMEIEELKEKNNSLSQEVQNAQHQREELERENNHLKEQQNGWQERLQALLGRMEEV [S4A;L5A], for which the “effect of a mutation on the interaction” value was “decreasing interaction strength”.

MTMSLEVFEAAEAKVQQAIDTITLLQMEIEELKEKNNSLSQEVQNAQHQREELERENNHLKEQQNGWQERLQALLGRMEEV [K10A;L11A]: the “effect of a mutation on the interaction” value was “decreasing interaction strength”.

In the case of MTMSLEVAAKLEAKVQQAIDTITLLQMEIEELKEKNNSLSQEVQNAQHQREELERENNHLKEQQNGWQERLQALLGRMEEV [F8A;E9A], the “effect of a mutation on the interaction” value is reported as “decreasing interaction strength”.

The record behind these values is IntAct's records for PubMed 22056926.
